Test results: PMC9002140 (Computational and Structural Biotechnology Journal, 2022)

Key:
[1] = target: T1, thermolysin from B. thermoproteolyticus Rokko (Bacillus thermoproteolyticus Rokko, UniProt P00800 233-548); assay: cell-based or functional assay
T1 sequence (looked up): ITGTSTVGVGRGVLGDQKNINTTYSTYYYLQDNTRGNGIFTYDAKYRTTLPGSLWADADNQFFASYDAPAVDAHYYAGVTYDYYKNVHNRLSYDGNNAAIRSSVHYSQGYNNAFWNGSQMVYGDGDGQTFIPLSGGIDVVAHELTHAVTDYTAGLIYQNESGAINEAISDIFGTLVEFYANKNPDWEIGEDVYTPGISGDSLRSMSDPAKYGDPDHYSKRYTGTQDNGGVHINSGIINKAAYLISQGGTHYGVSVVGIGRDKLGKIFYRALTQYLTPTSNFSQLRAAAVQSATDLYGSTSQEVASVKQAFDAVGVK

[2] = target: T2, aureolysin isoform I, mature catalytic domain (A209–E509) (Staphylococcus aureus (strain V8-BC10), UniProt P81177 209-509); assay: enzyme inhibition assay
T2 sequence (looked up): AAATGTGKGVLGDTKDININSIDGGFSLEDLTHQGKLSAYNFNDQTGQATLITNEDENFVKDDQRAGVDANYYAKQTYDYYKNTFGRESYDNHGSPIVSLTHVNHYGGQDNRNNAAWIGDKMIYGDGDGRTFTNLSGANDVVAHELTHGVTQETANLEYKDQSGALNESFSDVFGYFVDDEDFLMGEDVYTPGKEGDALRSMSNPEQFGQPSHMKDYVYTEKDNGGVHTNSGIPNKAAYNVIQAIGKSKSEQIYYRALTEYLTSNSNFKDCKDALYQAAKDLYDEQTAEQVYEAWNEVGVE

B1: R58E-IMPI (natural protein, Galleria mellonella)
chain: GMSIVLICNGGHEYYECGGACDNVCADLHIQNKTNCPIINIECNDKCYCEDGYARDVNGKCIPIKDCPKIRS
For B1, the “inhibition of thermolysin, against the wild type” value [1] was roughly 200 fold.

B2: I57F-IMPI (natural protein, Galleria mellonella)
chain: GMSIVLICNGGHEYYECGGACDNVCADLHIQNKTNCPIINFRCNDKCYCEDGYARDVNGKCIPIKDCPKIRS
B2 was tested, and the Ki [2] was 346 nM.
